{"source": "patent US6759384", "about": "(AVENTIS PHARMACEUTICALS, dated 2004)", "key": {"[1]": {"molecular_target": "T1, human factor Xa (Enzyme Research Laboratories, Inc.) (human, UniProt P00742 41-179; P00742 235-488, limits assumed)", "T1 sequence (P00742 41-179 limits assumed, chain 1 of 2)": "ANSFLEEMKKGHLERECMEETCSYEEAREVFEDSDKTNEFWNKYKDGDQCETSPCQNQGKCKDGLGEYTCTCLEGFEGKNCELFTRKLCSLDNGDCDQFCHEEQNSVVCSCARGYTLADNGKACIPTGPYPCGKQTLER", "T1 sequence (P00742 235-488 limits assumed, chain 2 of 2)": "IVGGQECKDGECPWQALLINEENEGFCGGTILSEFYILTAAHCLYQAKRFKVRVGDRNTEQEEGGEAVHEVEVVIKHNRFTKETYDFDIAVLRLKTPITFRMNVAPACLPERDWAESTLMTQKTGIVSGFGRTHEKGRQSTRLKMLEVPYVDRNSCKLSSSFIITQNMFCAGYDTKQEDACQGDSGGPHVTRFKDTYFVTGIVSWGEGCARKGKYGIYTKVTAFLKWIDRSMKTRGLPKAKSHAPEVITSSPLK", "assay": "chromogenic FXa inhibition", "protocol": "TBS-P buffer (50 mM Tris-Cl, pH 7.8, 200 mM NaCl, 0.05% (w/v) PEG-8000, 0.02% (w/v) NaN_3) was used for this assay. The IC$50$ was determined by combining in appropriate wells of a Costar half-area microtiter plate 25 μl human factor Xa (Enzyme Research Laboratories, Inc.; South Bend Ind.) in TBS-P; 40 μl 10% (v/v) DMSO in TBS-P (uninhibited control) or various concentrations of a peptide to be tested diluted in 10% (v/v) DMSO in TBS-P; and substrate S-2765 (Nα-benzyloxycarbonyl-D-Arg-Gly-L-Arg-p-nitroanilide; Kabi Pharmacia, Inc.; Franklin Ohio) in TBS-P.\nThe assays were performed by pre-incubating the peptide inhibitor plus enzyme for 10 min, then the assay was initiated by adding substrate to obtain a final volume of 100 μl. The initial velocity of chromogenic substrate hydrolysis was measured by the change in absorbance at 405 nm using a Bio-tek Instruments kinetic plate reader (Ceres UV900HDi) at 25° C. during the linear portion of the time course (usually 1–5 min after addition of substrate). The concentration of inhibitor that caused a 50% decrease in the rate of substrate hydrolysis was predicted by linear regression after plotting the relative rates of hydrolysis (compared to the uninhibited control) versus the log of the peptide concentration. The enzyme concentration was 0.5 nM and substrate concentration was 140 μM."}, "[2]": {"molecular_target": "T1, human factor Xa (Enzyme Research …)", "assay": "chromogenic FXa inhibition", "summary_of_the_method": "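Human FXa (0.5 nM) preincubated 10 min with inhibitor in TBS-P (pH 7.8, 200 mM NaCl, PEG-8000), then S-2765 added (140 μM). Initial hydrolysis rate read at 405 nm, 25° C.; IC50 by linear regression of relative rate vs log concentration.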", "remark": "listed apart in the source"}, "[3]": {"molecular_target": "T1, human factor Xa (Enzyme Research …)", "assay": "chromogenic enzyme inhibition, IC50 corrected for substrate"}, "[4]": {"molecular_target": "human thrombin (Enzyme Research Laboratories, Inc.) (human, UniProt P00734 328-622)", "assay": "chromogenic enzyme inhibition, IC50 corrected for substrate"}}, "data": [{"binder": "XIRLP (N-(iBu) on Y1; C-term NH2)", "note": "[(iBu)Y-I-R-L-P-NH2]", "values": [{"measurement": "Ki", "setting": "[1]", "value": 2.6, "unit": "µM"}, {"measurement": "Ki", "setting": "[2]", "value": "< 100", "unit": "µM"}]}, {"binder": "XIRLP (N-term Ac; N-(iBu) on Y1; C-term NH2)", "note": "[Ac-(iBu)Y-I-R-L-P-NH2]", "values": [{"measurement": "Ki", "setting": "[2]", "value": "< 100", "unit": "µM"}, {"measurement": "Ki", "setting": "[3]", "value": 0.04, "unit": "µM"}, {"measurement": "Ki", "setting": "[4]", "value": 25, "unit": "µM"}]}]}
